The target in this experiment is T1, Nt^17 peptide, the seventeen-residue N-terminal region of huntingtin (htt).
T1 chain: MATLEKLMKAFESLKSF
Briefly: native MS. The note with it: remark: other sources report otherwise.

As to MATLEKLMKAFESLKSF [Nt^17 peptide, the seventeen-residue N-terminal region of huntingtin (htt)], the normalized collision energy for 50% signal decay of the complex was found to be 20 NCE and the stoichiometry N (in general, a count of units in the complex or per binding partner) came to 4.
